The supplement of paper PMC9170038

system: K4 kissing-loop RNA reporter; test: apparent KD of K4 kissing-loop reporter; higher = weaker reporter binding; conditions: Eterna round: R107; input ligand: FMN 200 uM
Experimental: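 RNA-MaP round R107: designed RNA switches with theophylline, tryptophan, arginine or FMN aptamers are transcribed on-chip within common flanks. They are titrated with a labelled K4 kissing-loop RNA reporter in RNA-MaP buffer (100 mM Tris pH 7.5, 80 mM KCl, 4 mM MgCl2), without ligand or with the indicated ligand. Median apparent KD per design.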
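Also: bound reporter read as fluorescence of individual clusters on recovered sequencing chips by microscopy, with normalized cluster intensities fitted with a binding model.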

Sequence | apparent KD of K4 kissing-loop reporter [nM]
UGUACCGAGUCAGGAUAUACCGUCGAAAGACGAAAUGGAGUGAUGUUCCUUAAACUGCGAAAGCAGGUAGAAGGGACUUGGUACU [FmnBS 30 #SwitchBubble #StaticStem #DoubleMagnetSystem] | 165
GGGUAUUACGGAGGAUAUGCACUGAGGAGGAGAAUAUAGUGAUGUUAUAUAAGAGGAAGGAGAAGAGUAGAAGGCCGUGGUGUUU [SSFMNB.J] | 171
GUCCCAGUGAUGUUGGUAGGCGGGCGGGAUACCAGCGAAGACUCACGCCCUUGGCAGCCCACAUAUCCCGCGUAGGGAUUAGCCC [Same State - Theophylline A (Freestyle 22)] | 652
AAAUAGCAGCAACGAGUGAUGUUCGACGAUACCAGCCUCGAUAGAGGCCCUUGGCAGCGUAAAUGAUCACAAAGCCAAGGGCUGC [#SwitchBubble 2] | 382
GGAUCCACCAGUGAUGUUGGAGAAAACUCCAAGGAUAUGACGAAAGUCAGAAGGUGGUAAUAAGACGUCAAAGACGUCGGAUCCA [FmnA 19 #SwitchBubble #K4Early] | 1400
CGCAGUGAUGUUGCUUAUAUUCUUGGUUAACGAGGACCGGUACGGCCGCCACUCGAUUUCUAUCUAUUCCAGUGUUAAUUUGAGU [JR_ExcTryptoA_Sub005] | 364
GAGGAUUGAACGGCCGCCACUGCGCGCAGCUGCAAUCGAGUGAUGUUCCAUCAGUUGUCCAGUUCCAGGACCGGGUUCCGAUGCC [theeternabot_exclusion_KL_Trp_B_12] | 499
AUUUAUGUUUCGGCCGCCACUCCACGUACUCAGAGAGAGUGAUGUUCUUUUUAUUAACGUCUAUGGAGGACCGGGAAGAGGUGAG [theeternabot_exclusion_KL_Trp_B_37] | 672
UUUUAUUAGUAGUGAUGUUACUAAACUGAAGGAGCGAGAUUUAACUCAGGUAGGUCGCAGAAAAUCAAUUAAUUUAUAAAUUAAA [JR_SSArginiA_Sub011] | 97.7
UAAAUUAUCUGAAGGAGCGUGAAAUAAUAUUAAACAUAACAACCCAGUGAUGUUGGGUUAUCACAGGUAGGUCGCAGAUGUAGAU [Same State Arginie B GF 24] | 95.6
AGAACUGUCUGAGAUACCAGCCAAGGAGUGAUGUUCCGGCUCGACGAAACGUCGAGCCAUGGCCCUUGGCAGCUCAGACAGUUCA [Omei KL Theo B SS A v2] | 249
UUAUAUUUUAUAUUUAGUAGAGCUCUAGCUCGAGGACCGGUACGGCCGCCACUCGAGUGAUGUUCGAGUGGAAGAGCUCUACAUU [AK3.1 EXC Tryptophan A] | 114
UCUGUUGUAUAUGAUACCAGCAGUGAGAGAUGAGAAGUAUAGUGAUGUUAUAUGAGUGAAUGCCCUUGGCAGCGUGUGCGUGUGG [SSTheophylB.aD] | 101
UGUAUGUGAUUUGAUACCAGACCAGCUGGUGGUACCUGAGUGAUGUUCGGGAUGGUUUGGGUCCCUUGGCAGCAAAUCGCAUACU [KL-SSTheoB20] | 251
AACGACUGGAUGAAUAACAUCUAGUCGAUUCGAGGACCGGUACGGCCGCCACUCGAGCUAACUGCGAGUGAUGUUCGAUAAUAAA [#OpenEnded 3] | 347
UUUAAACAUAGUGAUGUUAUGUAACAAUGACGAGGACCGGUACGGCCGCCACUCGAGAGAGAUAAUGAUAAAAUAAAUAAUUUUC [#09 K4 Tryptophan A Same State] | 109
GGUGUUGUUUGUGCUGUUUUCUUCGUUUCUCGAGGACCGGUACGGCCGCCACUCGAGUGAUGUUUGGGUAGCGAUGUUUGUUAGU [Bdazzled - #3 - Exc. Tryptophan A] | 473
GGCAGUGAUGUUGCCAGUGGCAGAUGCGAAGGAGCGCGGUGAGACGCAGGUAGGUCGCGCAUUGAAAUUGCUGUCACUAGAAUGC [whbob_Ex_Arginine_A_2t127] | 258
UGAUACCAGACUGAUACCAGCCACAGAGUCAAAGACUCUGAAAGGGAAACCAGUGAUGUUGGCCCUUGGCAGCAGUCUGGUAUCU [TheoBX 23 #SwitchBubble #StaticStem] | 502
UACUAUAGUGAUGUUAUAGAUAAACCAGAUACCAGUGUAACAUAACACCCUUGGCAGCUGAUAAGGGAAAGUAUAAAUGUGUAUU [AstrosSSTHe-A#3newdesignED] | 230
UGGUUAAGCAGUGAUGUUGCAAGUGAUGAUACCAGUUAAGAAGAGAACCCUUGGCAGCAUAAAGUGCGCUCUGAUGAGUGUGCUU [whbob_SS_Theo_A_w55] | 165
AGACUACCACACUGUCAAUAGACAGUGGACUAGGAUAUGCUGAUAAGCAGAAGGAGUGAUGUUCCCAGGUAGUCAAUAAAAUAAU [FmnAX 13 G28+C66] | 215
ACACUUUACGUAGGAUAUGCGACGAGUGAUGUUCGUCAGGCGGCUUUAGAUUAUACAAGCCGCCUAGCAGAAGGACGGGCAGUGU [Araar] | 127
AGAGUUAAUUAGUCUUUUUUCACAUUAAGUCAGGAUAUCGUAUUUUCGAGAAGGGACACAUGCUAGUGAUGUUAGCUAUUUCUCA [JR_Nu3_ExcFMNA_Sub020] | 60.1
ACGCGCGCGAGUGAUGUUCGGAGCGGCUGGCAGGAUAUGUAGCAAUGCAGAAGGGUCGUGGCGGUGGGCGCGCAAGCGGCUGCCG [#2 Exclusion - FMN A Attempt #12 (HarryS)] | 187
AGGUUUUGCGGAGGAUAUGCACUGAGGAGGAGAAUAUAGUGAUGUUAUAUAAGAGGAAGGAGAAGAGUAGAAGGCCGUGAGGUUU [SSFMNB.N] | 144
